test: soluble on expression in E. coli; label from the status in PepcDB or PDB records

**Q.** With “MPSRLHSAVMSGTRDGDLNAAIRTALGKVIDPELRRPITELGMVKSIDTGPDGSVHVEIYLTIAGCPKKSEITERVTRAVADVPGTSAVRVSLDVMSDEQRTELRKQLRGDTREPVIPFAQPDSLTRVYAVASGKGGVGKSTVTVNLAAAMAVRGLSIGVLDADIHGHSIPRMMGTTDRPTQVESMILPPIAHQVKVISIAQFTQGNTPVVWRGPMLHRALQQFLADVYWGDLDVLLLDLPPGTGDVAISVAQLIPNAELLVVTTPQLAAAEVAERAGSIALQTRQRIVGVVENMSGLTLPDGTTMQVFGEGGGRLVAERLSRAVGADVPLLGQIPLDPALVAAGDSGVPLVLSSPDSAIGKELHSIADGLSTRRRGLAGMSLGLDPTRR” as the sequence, how does the “soluble on expression in E. coli” value read?
**A.** Its value is “not soluble”.

**Q.** For “MTKKQKEILFCDYFEEWVEVYKVGAIAKITLAKYYNAAKQLRDLCPKLFISDFDRREYQRIINVYAETHEKQTVKDFHHHVKACIKDLFHDGLIDKDPTYRVVIKGAEPTRAKKRKFLQKEELSKLLQSLDMSQIGFGWFVMLVAKTGMRYAEALAITPADFDWTAQTISINKTWDYKYNKGFAKTKTLSSVRTIKIDWQIVGQFKPLIKDFPEDEPIFVEKFGDGTYKRQFNSTINNFLAVKCN”, which “soluble on expression in E. coli” value is on record?
**A.** The value was “not soluble”.

**Q.** With “MKNKAFGQIMDDAENPGFFKILRSADLSSEIMRGIPLNFIKSISEEELSAKMLLKVSWGSSWPIKICRNPSFYFMEKKGWDQFLSDNGLGNDEFLTFTHQGNMCFTVDIYQIDGKELLTPRRSATIASSSGRNKREQRNNIYKDVKEEEDIESWSESSYPGHKTAESTGRRQRLSLSNKKAKETEKSKKKKMKVESISYDSQDDSLSLVPEFTLTIKKSYLIFLGIPKMFEELHMPTEATMFKIHDPEGKRSWDVMYKFSNNQTRFCAGWIRLAKELGLEIGDVCTFTLIKPTEMLVRVSK” as the sequence, how does the “soluble on expression in E. coli” value read?
**A.** The value was “soluble”.

**Q.** With “MKTISNEQLTIQVSPHGAELCSIFANGKEYLWQADPAFWKRHSPVLFPIVGSVWENQYRNEGIAYTLSQHGFARDMEFTLVSEKEDEVRYHLVSNEETLRKFPFPFCLEIGYRIQGKQIEVIWEVKNTGEKEMYFQIGAHPAFYWPDFNADTQNRGFFGFDKEEGLKYILISEKGCADPSTEYSLELTDGLLPLDTHTFDKDALIIENEQIHKVTLYTKEKKAYLSLHFHAPVVGLWSPPAKNAPFVCIEPWYGRCDRAHYTGEYKDKDWMQHLQPEETFRGGYTIEIDELEHHHHHH” as the sequence, how does the “soluble on expression in E. coli” value read?
**A.** The value was “not soluble”.

**Q.** With “MSQGQSKKLDVTVEQLRSIYHQFHDILEEKTDLHLPKKEYDDDAVRREVQIQLQEFLLSAMTMASKSLEVVNADTVGKTVKQLIMESQEKYMEPFDLDLNEQVRKMYQEWEDETVKVAQLRQTGPAKINEVYNNSKDEYLAQLDGRIGVLQARMMQQQSADHDDSTDDADDHINWEHIKQDYVASLNELYQTQQDLPKVRYNVEKVKRLMDFLEED” as the sequence, how does the “soluble on expression in E. coli” value read?
**A.** Its value is “soluble”.

**Q.** Which “soluble on expression in E. coli” value does the source give for “MGSDKIHHHHHHMNSSLQVGIGIDVGSSSARIGVYNYYNDALLEMAQEPVPYYQDSSKKSWKFWQKSTEIIKALQKCLQKLNIREYEVKSCGVSATCSLAIFERDRTSNMLIPYPNEDNVIFWMDSSAVNECQWLNMQCPQQLLDYLGGKFVPEMGVPKLKYFLDEYSHLRDKHFHIFDLHQYIAYELSRLYEWNIEGLLGRENLNGIGNDGEVSGWSSSFYKNIINLPSNVSIGTTSLVANKHISTTVVRSCIDSYASWFAVASPHLETSLFMIAGTSSCYMYGTTISDTRIPGVWGPFDTILDNRGDFSVYAAGQSCTGKLIEHLFESHPCARKILKDGADIYQVLEQTIRDIEKNNGLSIHILTKDMFFYGDYEGNRTPFADPRIKGSFIGESTDTSMLNLTYKYICILEFLSFQTKLIIDTFQNENSNIHIKELRISGSQAKNERLLSLISLVNNGVAIIKPKENVDMMGIKGAYVLAKSAKEKKQLADVITERDISNDSEKFESLAEYRLGNDSILLRKLLCVKYHIHLDMAKQQKRYHKLVDEVFQHL” here?
**A.** The value was “not soluble”.

**Q.** Which “soluble on expression in E. coli” value does the source give for “MSLPLIIPENIPAYELLKEHAFIMGLRRAKHQDIRPQEILIVNLMPKKIETENQILSLLANSPLQVNITLLATTSYVGKNTPFTHLEKFYKGLEEVKKHKFDGAIVTGAPVEQMDFEKVAYWEELLEIFDFLKQNVTSSMYICWGAMAALKYFYGVDKISLDKKIFGVYKHDKVSPDLLLTNLDEKVLMPHSRHSSMDEEQILALQKQGKLKILLRNKKIGSALLRDEKNIFILGHLEYFKETLHQEYVRDNFIQKAKNYYDKKGNIKYNWRSNANTIFANWLNYDVYQSTPFVLEGHHHHHH” here?
**A.** Its value is “soluble”.

**Q.** For “GSHNSHMKLQEVEIRNKDLEGQLSEMEQRLEKSQSEQDAFRSNLKTLLEILDGKIFELTELRDNLAKLLECS”, which “soluble on expression in E. coli” value is on record?
**A.** The value was “soluble”.

**Q.** For “MGMIGYFAEIDSEKINQLLESTEKPLMDNIHDTLSGLRRLDIDKRWDFLHFGLTGTSAFDPAKNDPLSRAVLGEHSLEDGIDGFLGLTWNQELAATIDRLESLDRNELRKQFSIKRLNEMEIYPGVTFSEELEGQLFASIMLDMEKLISAYRRMLRQGNHALTVIVG”, which “soluble on expression in E. coli” value is on record?
**A.** Its value is “soluble”.

**Q.** Which “soluble on expression in E. coli” value does the source give for “MKEKVSMVSLGCPKNLVDAEVMLGCLAKDQYEITTDEHEADIIIVNTCSFIGDAKKESIDTILDLADRKHDGRCKLLVVTGCLPQRYQEELATELPEVDIFVGTADYPRIAEIIAEKRGVAEQLRYISDPNYIFDESLPRLKSSPAYTAYLKIAEGCSNCCSYCVIPSLRGALRSRPLDNLLMEARTLVATGTREINLIAQDITAWGRDLPGSPTLEELVRELAKIVGLRWIRLLYAYPDGITDGLIEIIKTEPKVCKYLDIPIQHISDPVLKRMNRRSTEPQIRALIAKIRAEIPEIALRTSLIVGFPGETEEDFRTLLHYVEETQFDRLGVFCYSREEGTPAAGMEDQVSERVKRDRYKKLMKVQARLSFKRNRRLIDTEEEVIVEGYSDETDLLLKGRSSRQAPDIDGQVYITAGNANVGDIVRLRITDSSDYDLIGEIVEELEHHHHHH” here?
**A.** Its value is “soluble”.

**Q.** For “MRGSHHHHHHGMASMTGGQQMGRDLYDDDDKDHPFTMFYEKIQTPAYILEEDKLRKNCELLASVGEKSGAKVLLALKGFAFSGAMKIVGEYLKGCTCSGLWEAKFAKEYMDKEIHTYSPAFKEDEIGEIASLSHHIVFNSLAQFHKFQSKTQKNSLGLRCNVEFSLAPKELYNPCGRYSRLGIRAKDFENVDLNAIEGLHFHALCEESADALEAVLKVFEEKFGKWIGQMKWVNFGGGHHITKKGYDVEKLIALCKNFSDKYGVQVYLEPGEAVGWQTGNLVASVVDIIENEKQIAILDTSSEAHMPDTIIMPYTSEVLNARILATRENEKISDLKENEFAYLLTGNTCLAGDVMGEYAFDKKLKIGDKIVFLDQIHYTIVKNTTFNGIRLPNLMLLDHKNELQMIREFSYKDYSLRN”, which “soluble on expression in E. coli” value is on record?
**A.** Its value is “soluble”.

**Q.** Which “soluble on expression in E. coli” value does the source give for “MAHHHHHHMDPLAGLTTGSRNVIDDFFRWSRLSLDKFKRDLTVEASAFQAGNLWREQYTKAEVAQMLNGQLALMLGVVDTQMEGTTAASAELMRAVLREADRQRVTLDIDVKSVLNNAGGVNAMGEHGRQLMSGPTGRLAPLTVEEASGEAARQLAEANAEVKRLQAKLQQVTDAYTQVMRGRSSDTENLLSMQDAMNDKERLAAELARRCQGQDPSLAATVQELRAEVAEAKRELASRLHQSTQYQQVKHLLAQRNEQLKMMRERLAAYDPSFARYGDDINAEDD” here?
**A.** The value was “soluble”.

**Q.** With “MGSDKIHHHHHHMKILKHSLFTSVVNKMRLIHHQDDTAKLSLLITGMSGTGKSTLVDWYEQQYPVEYTPEVTLKRVICVHLTKPNSPINLLEQIINAMGTSYIPRRRTLNKLLHQLKCLLEACQTELIILDEAQECLPDSDGIKAQSMAKAFVAIIDKCNVPLILIGTPALKRLLKLKYLADVKNISREEQLSRRFIAPCQLNIFLSHCDAWVNVINFFGKTKGLRNLNTKDADILDRLYVATYGRIGLIKKLFAFTQLNETSDLQATFYDAYELVDTTGEANPFNQQDYTYAAIIKKAENIERIYFTHNKTHPSEKRVADRLFH” as the sequence, how does the “soluble on expression in E. coli” value read?
**A.** Its value is “not soluble”.

**Q.** Which “soluble on expression in E. coli” value does the source give for “MGSDKIHHHHHHMSQQQPPAPVEGYQDMVHAAESQFDREQFKQLLMDMVNIPSPTGEEAELARYMADHMTANGLQGQTQYLDDQQANAIGKLPSRSKQGPELLLYASFDTHLGGSDEEERWAGQPLPSMLRPQARLEGDEISGLGAENPKAYAACVTTAATCIAKAGLELPGELTVGLGAGGMTALSRPGFSRRNIGHGAGVMFMLQRGYRPDYCVMCKPVYAVAWEEVGICNFTIRVKGAMGYVGVRHMMPQDQNPFPQVAKVIEALEAWFPTYTARHTSGLVAPQGGISAIEGGWPHKPIITTADVVLHVDIRPSPRTDPVQVKRELQAMLTELSQQHPDVVTELEATLAIPGATTSPDNWIIQSMIRAWEDVEQTPHEPFLNMSGYTDLSVIRQWGVPAARLGVPFRHQEPDPEDSLPMNRVHLDDCYRLIQVLIRSAIDTCSRPIEITQQYQ” here?
**A.** The value was “not soluble”.

**Q.** Which “soluble on expression in E. coli” value does the source give for “SLGELPPAPSDSKRTVFLDIDETLVHVTPYPLPFVKPDATFLLQEHRRPSDPPGVSPEYLPGVSAGAAPRAALLHVYYRPFLMPFLENLLQTNRCELVAFTAALREYADPILDGIETKLGGARGSVFAARLYRQHCARAPRSKDLVHAAPSRCLSRCVLLDNSVVSLAAQLANGLLLRPFYGDPQDRELEGVLAFLLDLLEKTGDIRESMKESGMLHKVT” here?
**A.** Its value is “soluble”.

**Q.** With “MGSDKIHHHHHHMQNTDIVVIGSGIGGLSCAALLARYGFDVIVCESHSIAGGAAHGFERNGFKFDSGPSLYSGLSYSPSANPLRQVLDAIGSELPCVTYDTWGCCLPEGDFDTAVGAEQFCEVLMKFCGDDAVAEWQELQRVMEPFARAATSIPPAALRFDFGAARTVGPFVPSLTKNVANIIKLTGPFSRIMDGVVKDSFTRNWLNLLCFLLSGLPADGTSAAEVAFMFADWYRPDAILEYPIGGSSALVDSLVQGLERHGGKLMLGAHVEEVLVEGNRAVGVRLRDRSEIRAKLAVISNASVWDTLKLLPEKAIPKQYRSKRQATPECDSFMHLHLGIDAQGLQSNLRCHYIVVNNWELGVTAPQNVVVISIPSVLDPSLAPAGKHVIHVYTPGNEPYSFWQGMDRRSQEYAEQKRSRAEVMWQALERIIPDIRSRCEVTLVGTPLTHERYLRRHQGSYGPAIQAGSGMFPSPSTPLPGLMCCGDSTFPGIGLPAVAASGLIAANTLAPVNKHLAMLQDINCI” as the sequence, how does the “soluble on expression in E. coli” value read?
**A.** The value was “not soluble”.

**Q.** For “SLHRLNKKAGDYGEKAAEIYLKKSGYTILNRNFRCFLGEVDIIAKNKDYITFVEVKSRWSDTYGLPCEAVNYRKKLKIYRTAKYYIASKSLINYNFRFDVIEVILNHQNDSYDLKFIENAFQI”, which “soluble on expression in E. coli” value is on record?
**A.** Its value is “soluble”.

**Q.** For “MGGSHHHHHHGMASGSAGLSRLHGLFAVYKPPGLKWKHLRDTVELQLLKGLNARKPPAPKQRVRFLLGPMEGSEEKELTLTATSVPSFINHPLVCGPAFAHLKVGVGHRLDAQASGVLVLGVGHGCRLLTDMYNAHLTKDYTVRGLLGKATDDFREDGRLVEKTTYDHVTREKLDRILAVIQGSHQKALVMYSNLDLKTQEAYEMAVRGLIRPMNKSPMLITGIRCLYFAPPEFLLEVQCMHETQKELRKLVHEIGLELKTTAVCTQVRRTRDGFFTLDSALLRTQWDLTNIQDAIRAATPQVAAELEKSLSPGLDTKQLPSPGWSWDSQGPSSTLGLERGAGQ”, which “soluble on expression in E. coli” value is on record?
**A.** Its value is “not soluble”.
